Experimental findings from FireProtDB (doi:10.1021/bi00179a018) are described below.

For this data set the following is noted: Bacillus amyloliquefaciens, Thermal, DSC, Potassium acetate 50 mM, reversible: yes, whole UniProt chain shown; for unfolding free energy: 25 °C.

The term Tm denotes the temperature at which the thermal transition is half complete.

B1: Ribonuclease wild type, P00648 (protein)
chain: MMKMEGIALKKRLSWISVCLLVLVSAAGMLFSTAAKTETSSHKAHTEAQVINTFDGVADYLQTYHKLPDNYITKSEAQALGWVASKGNLADVAPGKSIGGDIFSNREGKLPGKSGRTWREADINYTSGFRNSDRILYSSDWLIYKTTDHYQTFTKIR
Turning to B1, the Tm was found to be 24 °C (pH 2); 31.6 °C (pH 2.5); 46.7 °C (pH 3.5); 50.5 °C (pH 4); 53 °C (pH 4.5); 53.9 °C (pH 5). Moreover, the “unfolding enthalpy (calorimetric)” value (pH 2) was found to be 82.5 kcal/mol; the “unfolding enthalpy (calorimetric)” value (pH 2.5) amounted to 94.3 kcal/mol; the “unfolding enthalpy (calorimetric)” value (pH 3.5) was found to be 119 kcal/mol; the “unfolding enthalpy (calorimetric)” value (pH 4) worked out at 125 kcal/mol; the “unfolding enthalpy (calorimetric)” value (pH 4.5) was found to be 129 kcal/mol; the “unfolding enthalpy (calorimetric)” value (pH 5) was determined as 131 kcal/mol. Further, the unfolding free energy by setting is: (pH 3) 4.4 kcal/mol; (pH 3.5) 6.79 kcal/mol; (pH 4) 8.13 kcal/mol; (pH 4.5) 9.02 kcal/mol; (pH 5) 9.35 kcal/mol.
